In PMC11021482 one finds EC50 of the Ca^2+ response of cultured mouse DRG neurons to CXCL5 (Fura-2 imaging, dose-response) data, which are given here for one molecule.

This experiment has as its target T1, CXCR2 of mouse DRG neurons (mouse (endogenous in DRG)) (UniProt P35343).
T1 sequence: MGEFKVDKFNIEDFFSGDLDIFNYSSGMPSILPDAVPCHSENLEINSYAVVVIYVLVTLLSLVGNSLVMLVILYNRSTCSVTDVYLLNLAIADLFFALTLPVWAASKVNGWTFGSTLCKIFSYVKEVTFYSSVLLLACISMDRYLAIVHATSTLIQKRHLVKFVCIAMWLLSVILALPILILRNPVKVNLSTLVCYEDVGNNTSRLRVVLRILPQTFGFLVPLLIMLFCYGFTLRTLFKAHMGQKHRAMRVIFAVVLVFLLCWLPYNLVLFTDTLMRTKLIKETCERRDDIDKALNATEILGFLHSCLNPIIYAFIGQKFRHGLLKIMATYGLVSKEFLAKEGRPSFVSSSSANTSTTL

B1: recombinant mouse CXCL5 (ligand)
chain: APSSVIAATELRCVCLTVTPKINPKLIANLEVIPAGPQCPTVEVIAKLKNQKEVCLDPEAPVIKKIIQKILGSDKKKAKRNALAVERTASVQ
In turn, B1 yielded an EC50 of the Ca^2+ response of cultured mouse DRG neurons to CXCL5 (Fura-2 imaging, dose-response) of 24.8 nM.
